US20180208666A1 (VENTANA MEDICAL SYSTEMS, published 2018)
Ends that are not written are not given here.

Columns and labels:
human OX40 = target: T1, human OX40 (human, UniProt P43489 29-277); assay: IHC on FFPE OX-40 transfected cells and FFPE tissues, ultraView DAB detection
T1 construct: no signal peptide limits are stated
T1 sequence: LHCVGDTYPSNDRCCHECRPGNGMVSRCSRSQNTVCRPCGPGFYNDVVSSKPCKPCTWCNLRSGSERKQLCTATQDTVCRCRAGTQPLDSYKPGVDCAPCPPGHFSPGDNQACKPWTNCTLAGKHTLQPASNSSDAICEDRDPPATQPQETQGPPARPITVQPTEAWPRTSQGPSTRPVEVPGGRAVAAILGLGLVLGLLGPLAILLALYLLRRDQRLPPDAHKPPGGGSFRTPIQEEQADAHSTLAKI
Description: IHC was performed using StdCC1 cell conditioning with ultraView Universal DAB Detection Kit (Ventana Medical Systems, Inc., Tucson, Ariz.). Primary antibody was incubated for 16 min at 37° C. on a BenchMark ULTRA automated slide stainer (Ventana Medical Systems, Inc., Tucson, Ariz.). Results are shown at Fig. (A) Mock transfected cells (negative control cells); (B) OX-40 transfected cells (positive control cells); (C) Reactive lymph node; and (D) Prostate adenocarcinoma.

[1] = target: T2, peptide fragment of amino acid residues 266-277 of OX40 (human, also: conjugated to KLH for immunisation); assay: ELISA screen of antibody-expressing cells on the OX40 antigen (peptide 266-277)
T2 construct: It was conjugated to KLH for immunisation; also called OX40 antigen; 12-amino acid fragment
T2 peptide: EQADAHSTLAKI
Description: Anti-OX40 rabbit monoclonal antibodies were generated as schematically depicted in FIG. 1. Briefly, the peptide fragment of amino acid residues 266-277 of was synthesized. The 12-amino acid fragment intended for immunization was conjugated to keyhole limpet hemocyanin (KLH), an extensively used carrier protein for stimulating a substantial immune response via antibody production. New Zealand White rabbits were immunized with KLH conjugated OX40 antigen emulsified with complete Freund's adjuvant followed by a series of OX40 antigen booster emulsified with incomplete Freund's adjuvant. The antibody-expressing cells were screened by enzyme-linked immunoabsorbant assay (ELISA) using the OX40 antigen. All ELISA positive clones were further screened by immunohistochemistry (IHC), and the clone producing the antibody with the highest specificity was selected. For recombinant production of anti-OX40 antibodies, cDNA coding for the heavy chain and light chain sequences of the antibodies were cloned, expressed by co-transfection, and screened for binding to OX40 by IHC. Anti-OX40 monoclonal antibody SP197 was produced using these methods and subsequently purified by Protein A affinity chromatography. The heavy and light chain variable region sequences of the SP197 antibody are as follows.

binding result (human OX40): binds
binding result [1]: binds
B1: Anti-OX40 monoclonal antibody SP197 (antibody, V domains shown)
VH: QSLEESGGRLVAPGGSLTLTCTVSGIDLSSDNIQWVRQAPGKGLEWIGAVDYNNKPFYANWAKGRFTISKTSSTTVDLKMTSLTTEDTATYFCAKNTFSPWGPGTLVTVSS
VL: DPAMTQTPSSTSAAVGGTVTINCQSSQSVYNANHLSWFQQKPGQPPKRLIYYISTPDSGVPPRFSGSGSGTQFTLTISGVQCDDAATYYCAALNSDEVFTFGGGTEVVVK
notes: also called rabbit anti-human OX-40 monoclonal antibody (SP197); anti-OX40 antibody SP197
